Values quoted from earlier work, collected in article PMC10172704 (Poultry Science, 2023).
Like-named read-outs stand apart in the source and are kept apart here.

Columns and labels:
Staphylococcus aureus = conditions: ref Wang et al., 2020
Escherichia coli = conditions: ref Wang et al., 2020

MIC (Staphylococcus aureus): 260 mg/mL | MIC (Escherichia coli; after proteolytic digestion by pepsin): 65 mg/mL | MIC (Escherichia coli): 130 mg/mL
B1: Milk lactoferrin: milk lactoferrin; literature MICs, also after proteolytic digestion by pepsin (protein, UniProt P02788 20-710, looked up)
Lactotransferrin: GRRRSVQWCAVSQPEATKCFQWQRNMRKVRGPPVSCIKRDSPIQCIQAIAENRADAVTLDGGFIYEAGLAPYKLRPVAAEVYGTERQPRTHYYAVAVVKKGGSFQLNELQGLKSCHTGLRRTAGWNVPIGTLRPFLNWTGPPEPIEAAVARFFSASCVPGADKGQFPNLCRLCAGTGENKCAFSSQEPYFSYSGAFKCLRDGAGDVAFIRESTVFEDLSDEAERDEYELLCPDNTRKPVDKFKDCHLARVPSHAVVARSVNGKEDAIWNLLRQAQEKFGKDKSPKFQLFGSPSGQKDLLFKDSAIGFSRVPPRIDSGLYLGSGYFTAIQNLRKSEEEVAARRARVVWCAVGEQELRKCNQWSGLSEGSVTCSSASTTEDCIALVLKGEADAMSLDGGYVYTAGKCGLVPVLAENYKSQQSSDPDPNCVDRPVEGYLAVAVVRRSDTSLTWNSVKGKKSCHTAVDRTAGWNIPMGLLFNQTGSCKFDEYFSQSCAPGSDPRSNLCALCIGDEQGENKCVPNSNERYYGYTGAFRCLAENAGDVAFVKDVTVLQNTDGNNNEAWAKDLKLADFALLCLDGKRKPVTEARSCHLAMAPNHAVVSRMDKVERLKQVLLHQQAKFGRNGSDCPDKFCLFQSETKNLLFNDNTECLARLHGKTTYEKYLGPQYVAGITNLKKCSTSPLLEACEFLRK
